Experimental data published in doi:10.1101/2020.04.16.045708 (bioRxiv, 2020).

T1: C9ORF72-SMCR8^M2 complex (human, UniProt Q96LT7;Q8TEV9, T862A | F863A | H865A | L867A)
T1 sequence 1: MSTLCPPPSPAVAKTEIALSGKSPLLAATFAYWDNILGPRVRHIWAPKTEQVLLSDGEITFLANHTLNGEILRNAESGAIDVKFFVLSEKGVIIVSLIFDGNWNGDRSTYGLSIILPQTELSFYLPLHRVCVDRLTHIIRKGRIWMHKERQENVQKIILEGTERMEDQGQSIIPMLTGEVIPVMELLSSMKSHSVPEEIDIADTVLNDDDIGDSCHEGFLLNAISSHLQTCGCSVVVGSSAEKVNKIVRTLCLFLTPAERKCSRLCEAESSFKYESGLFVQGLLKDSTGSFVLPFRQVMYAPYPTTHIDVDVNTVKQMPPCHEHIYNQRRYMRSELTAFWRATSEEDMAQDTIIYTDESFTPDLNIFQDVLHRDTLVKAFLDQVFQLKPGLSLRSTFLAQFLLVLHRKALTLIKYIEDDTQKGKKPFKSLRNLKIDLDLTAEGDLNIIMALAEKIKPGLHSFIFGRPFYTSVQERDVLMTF
T1 sequence 2: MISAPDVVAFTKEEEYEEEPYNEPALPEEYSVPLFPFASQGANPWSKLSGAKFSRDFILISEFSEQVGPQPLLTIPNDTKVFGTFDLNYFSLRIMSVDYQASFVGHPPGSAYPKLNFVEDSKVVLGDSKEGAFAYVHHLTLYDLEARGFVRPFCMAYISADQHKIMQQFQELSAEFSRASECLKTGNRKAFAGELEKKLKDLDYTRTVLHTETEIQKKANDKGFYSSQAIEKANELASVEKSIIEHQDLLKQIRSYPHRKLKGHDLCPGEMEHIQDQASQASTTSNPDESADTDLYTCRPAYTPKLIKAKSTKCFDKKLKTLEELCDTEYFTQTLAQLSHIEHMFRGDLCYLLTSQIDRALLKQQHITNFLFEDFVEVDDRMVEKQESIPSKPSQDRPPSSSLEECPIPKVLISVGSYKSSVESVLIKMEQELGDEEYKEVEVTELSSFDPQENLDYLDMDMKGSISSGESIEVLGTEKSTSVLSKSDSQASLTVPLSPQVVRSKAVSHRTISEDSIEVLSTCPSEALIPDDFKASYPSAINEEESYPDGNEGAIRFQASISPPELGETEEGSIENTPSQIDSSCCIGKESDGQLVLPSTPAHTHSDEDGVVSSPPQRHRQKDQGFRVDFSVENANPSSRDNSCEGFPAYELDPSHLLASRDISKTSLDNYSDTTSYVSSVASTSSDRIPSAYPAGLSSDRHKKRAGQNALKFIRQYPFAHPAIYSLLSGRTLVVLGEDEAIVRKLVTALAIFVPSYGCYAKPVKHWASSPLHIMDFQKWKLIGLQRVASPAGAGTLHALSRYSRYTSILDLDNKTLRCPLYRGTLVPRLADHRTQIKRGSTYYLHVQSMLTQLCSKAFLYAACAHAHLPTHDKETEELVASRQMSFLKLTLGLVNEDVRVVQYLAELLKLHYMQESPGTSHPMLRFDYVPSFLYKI

T2: C9ORF72-SMCR8^M3 complex (human, UniProt Q96LT7;Q8TEV9, E907A | K910A | Y913A | M914A)
T2 sequence 1: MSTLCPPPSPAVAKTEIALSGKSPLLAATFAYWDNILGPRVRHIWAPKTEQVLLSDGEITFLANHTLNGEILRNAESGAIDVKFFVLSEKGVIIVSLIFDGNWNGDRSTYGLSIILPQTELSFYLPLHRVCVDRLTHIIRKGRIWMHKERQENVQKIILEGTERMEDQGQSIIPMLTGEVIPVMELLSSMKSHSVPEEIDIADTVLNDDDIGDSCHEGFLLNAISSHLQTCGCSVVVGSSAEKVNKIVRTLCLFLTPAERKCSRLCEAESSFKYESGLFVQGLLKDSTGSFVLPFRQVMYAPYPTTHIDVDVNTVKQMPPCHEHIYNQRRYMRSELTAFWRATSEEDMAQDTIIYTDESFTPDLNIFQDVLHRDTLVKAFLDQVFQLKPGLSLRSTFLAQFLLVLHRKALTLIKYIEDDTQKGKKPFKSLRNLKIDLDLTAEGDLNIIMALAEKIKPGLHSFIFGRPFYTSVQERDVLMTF
T2 sequence 2: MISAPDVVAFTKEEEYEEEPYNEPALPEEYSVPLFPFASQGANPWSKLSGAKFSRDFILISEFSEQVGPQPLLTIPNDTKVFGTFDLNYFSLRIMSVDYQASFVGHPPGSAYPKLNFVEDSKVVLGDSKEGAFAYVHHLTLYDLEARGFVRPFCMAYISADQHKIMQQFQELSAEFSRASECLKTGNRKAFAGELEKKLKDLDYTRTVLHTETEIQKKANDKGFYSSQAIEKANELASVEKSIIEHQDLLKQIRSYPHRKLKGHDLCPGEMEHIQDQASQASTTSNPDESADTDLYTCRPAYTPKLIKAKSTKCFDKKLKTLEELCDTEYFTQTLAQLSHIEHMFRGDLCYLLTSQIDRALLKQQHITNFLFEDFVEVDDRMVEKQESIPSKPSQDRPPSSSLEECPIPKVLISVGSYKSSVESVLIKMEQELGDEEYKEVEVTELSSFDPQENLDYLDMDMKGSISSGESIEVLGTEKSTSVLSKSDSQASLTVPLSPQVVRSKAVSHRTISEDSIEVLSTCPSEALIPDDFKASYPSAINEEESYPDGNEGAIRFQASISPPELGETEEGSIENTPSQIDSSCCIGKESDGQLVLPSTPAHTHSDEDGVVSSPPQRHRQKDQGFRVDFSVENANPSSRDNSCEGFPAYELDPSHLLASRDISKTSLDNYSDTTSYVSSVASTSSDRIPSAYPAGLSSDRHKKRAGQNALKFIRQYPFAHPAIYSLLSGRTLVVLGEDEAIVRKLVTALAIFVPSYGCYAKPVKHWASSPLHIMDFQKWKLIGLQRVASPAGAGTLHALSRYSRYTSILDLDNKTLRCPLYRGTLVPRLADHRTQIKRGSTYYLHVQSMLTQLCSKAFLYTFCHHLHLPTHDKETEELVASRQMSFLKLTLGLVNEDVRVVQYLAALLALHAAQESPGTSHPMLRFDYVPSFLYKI

T3: C9ORF72-SMCR8 complex (human, UniProt Q96LT7;Q8TEV9)
T3 sequence 1: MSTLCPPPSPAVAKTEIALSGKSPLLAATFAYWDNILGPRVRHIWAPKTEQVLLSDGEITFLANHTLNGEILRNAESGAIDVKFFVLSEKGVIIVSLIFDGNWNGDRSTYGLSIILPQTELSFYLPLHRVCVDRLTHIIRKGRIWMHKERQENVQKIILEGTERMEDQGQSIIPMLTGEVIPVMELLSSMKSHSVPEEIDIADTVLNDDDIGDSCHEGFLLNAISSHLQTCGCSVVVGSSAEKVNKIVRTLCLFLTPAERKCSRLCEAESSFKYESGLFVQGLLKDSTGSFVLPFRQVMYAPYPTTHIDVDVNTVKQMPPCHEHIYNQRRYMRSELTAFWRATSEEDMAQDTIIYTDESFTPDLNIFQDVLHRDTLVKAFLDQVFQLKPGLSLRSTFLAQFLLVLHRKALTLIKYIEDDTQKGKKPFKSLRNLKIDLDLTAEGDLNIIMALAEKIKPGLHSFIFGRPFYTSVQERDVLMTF
T3 sequence 2: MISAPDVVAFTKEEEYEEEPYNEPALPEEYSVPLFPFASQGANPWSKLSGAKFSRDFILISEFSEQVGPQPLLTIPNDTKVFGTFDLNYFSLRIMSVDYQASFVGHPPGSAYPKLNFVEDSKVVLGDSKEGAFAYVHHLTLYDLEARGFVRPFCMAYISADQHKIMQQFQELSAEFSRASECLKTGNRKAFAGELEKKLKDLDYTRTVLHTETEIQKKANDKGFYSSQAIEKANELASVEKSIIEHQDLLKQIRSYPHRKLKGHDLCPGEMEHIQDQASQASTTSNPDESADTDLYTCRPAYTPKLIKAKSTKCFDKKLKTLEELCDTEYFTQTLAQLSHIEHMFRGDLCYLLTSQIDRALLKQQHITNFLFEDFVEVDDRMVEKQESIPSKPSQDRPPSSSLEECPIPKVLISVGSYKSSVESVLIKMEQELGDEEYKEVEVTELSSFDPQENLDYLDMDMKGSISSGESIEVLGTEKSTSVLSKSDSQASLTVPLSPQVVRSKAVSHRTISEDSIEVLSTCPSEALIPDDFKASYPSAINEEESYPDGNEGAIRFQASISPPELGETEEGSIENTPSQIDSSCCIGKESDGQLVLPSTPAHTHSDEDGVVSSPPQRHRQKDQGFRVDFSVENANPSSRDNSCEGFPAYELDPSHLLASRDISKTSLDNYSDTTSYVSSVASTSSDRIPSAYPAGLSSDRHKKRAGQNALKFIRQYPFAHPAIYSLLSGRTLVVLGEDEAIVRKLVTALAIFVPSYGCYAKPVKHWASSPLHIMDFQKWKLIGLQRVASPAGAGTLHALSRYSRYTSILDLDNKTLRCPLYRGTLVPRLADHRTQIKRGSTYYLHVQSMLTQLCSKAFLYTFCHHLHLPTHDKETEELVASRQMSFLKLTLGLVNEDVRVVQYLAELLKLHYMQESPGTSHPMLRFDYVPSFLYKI

T4: C9ORF72 (human, UniProt Q96LT7 1-481)
T4 sequence: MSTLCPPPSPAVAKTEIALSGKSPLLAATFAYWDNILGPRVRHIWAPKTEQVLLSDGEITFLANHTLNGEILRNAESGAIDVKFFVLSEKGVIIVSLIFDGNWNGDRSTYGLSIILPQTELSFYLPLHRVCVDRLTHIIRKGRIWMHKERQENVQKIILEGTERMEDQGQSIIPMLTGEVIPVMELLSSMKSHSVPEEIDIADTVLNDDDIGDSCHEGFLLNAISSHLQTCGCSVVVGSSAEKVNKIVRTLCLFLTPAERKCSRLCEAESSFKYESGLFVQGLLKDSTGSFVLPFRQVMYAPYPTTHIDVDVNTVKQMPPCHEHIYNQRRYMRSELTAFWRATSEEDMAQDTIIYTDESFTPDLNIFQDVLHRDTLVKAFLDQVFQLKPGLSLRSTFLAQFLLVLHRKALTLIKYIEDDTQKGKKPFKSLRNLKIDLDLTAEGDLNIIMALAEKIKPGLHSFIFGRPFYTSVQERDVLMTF


Key:
C9ORF72-SMCR8^M2 complex = biological target: T1, C9ORF72-SMCR8^M2 complex; test: pull-down
C9ORF72-SMCR8^M3 complex = biological target: T2, C9ORF72-SMCR8^M3 complex; test: pull-down
C9ORF72-SMCR8 complex = biological target: T3, C9ORF72-SMCR8 complex; test: SEC
C9ORF72 = biological target: T4, C9ORF72; test: AUC

Binder | binding result (C9ORF72-SMCR8^M2 complex) | binding result (C9ORF72-SMCR8^M3 complex) | stoichiometry N (C9ORF72-SMCR8 complex) | binding result (C9ORF72)
WDR41 (WD40 repeat-containing protein 41) (natural protein) MLRWLIGGGREPQGLAEKSPLQTIGEEQTQNPYTELLVLKAHHDIVRFLVQLDDYRFASAGDDGIVVVWNAQTGEKLLELNGHTQKITAIITFPSLESCEEKNQLILTASADRTVIVWDGDTTRQVQRISCFQSTVKCLTVLQRLDVWLSGGNDLCVWNRKLDLLCKTSHLSDTGISALVEIPKNCVVAAVGKELIIFRLVAPTEGSLEWDILEVKRLLDHQDNILSLINVNDLSFVTGSHVGELIIWDALDWTMQAYERNFWDPSPQLDTQQEIKLCQKSNDISIHHFTCDEENVFAAVGRGLYVYSLQMKRVIACQKTAHDSNVLHVARLPNRQLISCSEDGSVRIWELREKQQLAAEPVPTGFFNMWGFGRVSKQASQPVKKQQENATSCSLELIGDLIGHSSSVEMFLYFEDHGLVTCSADHLIILWKNGERESGLRSLRLFQKLEENGDLYLAV | binds | binds | 1 | –
SMCR8 Longin domain (SMCR8^Longin), co-expressed with C9ORF72 (domain or fragment) MISAPDVVAFTKEEEYEEEPYNEPALPEEYSVPLFPFASQGANPWSKLSGAKFSRDFILISEFSEQVGPQPLLTIPNDTKVFGTFDLNYFSLRIMSVDYQASFVGHPPGSAYPKLNFVEDSKVVLGDSKEGAFAYVHHLTLYDLEARGFVRPFCMAYISADQHKIMQQFQELSAEFSRASECLKTGNRKAFAGELEKKLKDLDYTRTVLHTETEIQKKANDKGFYSSQAIEKANELASVEKSIIEHQDLLKQIRSYPHRKLKGHDLCPGEMEHIQDQASQASTTSNPDESADTDLYTCRPAYTPKLIKAKSTKCFDKKLKTLEELCDTEYFTQTLAQLSHIEHMFRGDL | – | – | – | binds
